What was measured:
Assay in all cases: holdup assay
Set-up in all cases: key: below the threshold = too weak to quantify, mostly under pKd 3.1 to 4
[1] = molecular target: T1, APBA2_2, Q99767
T1 sequence (Q99767 654-744, limits assumed, looked up): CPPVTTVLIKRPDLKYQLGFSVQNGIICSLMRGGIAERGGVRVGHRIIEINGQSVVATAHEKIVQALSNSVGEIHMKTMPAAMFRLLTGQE

[2] = molecular target: T2, ARHGAP21, Q5T5U3
T2 sequence (Q5T5U3 45-169, limits assumed, looked up): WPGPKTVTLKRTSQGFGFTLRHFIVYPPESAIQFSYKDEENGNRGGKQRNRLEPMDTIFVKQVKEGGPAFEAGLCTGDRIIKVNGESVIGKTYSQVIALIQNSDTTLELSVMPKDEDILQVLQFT

[3] = molecular target: ARHGEF12, Q9NZN5-2
[4] = molecular target: T3, DFNB31_3, Q9P202
T3 sequence (Q9P202 811-907, limits assumed, looked up): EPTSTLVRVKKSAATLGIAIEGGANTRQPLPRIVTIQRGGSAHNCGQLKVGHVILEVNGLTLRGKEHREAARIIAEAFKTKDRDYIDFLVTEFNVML

[5] = molecular target: DLG1_1, Q12959
[6] = molecular target: DLG1_2, Q12959
[7] = molecular target: DLG2_2, Q15700
[8] = molecular target: DLG5_1, Q8TDM6
[9] = molecular target: GIPC2, Q8TF65
[10] = molecular target: GRASP, Q7Z6J2
[11] = molecular target: GRID2IP_1, A4D2P6
[12] = molecular target: Inadl_10, Q8NI35
[13] = molecular target: Inadl_2, Q8NI35
[14] = molecular target: Inadl_6, Q8NI35
[15] = molecular target: Inadl_8, Q8NI35
[16] = molecular target: LDB3, O75112
[17] = molecular target: T4, LIN7B, Q9HAP6
T4 sequence (Q9HAP6 88-185, limits assumed, looked up): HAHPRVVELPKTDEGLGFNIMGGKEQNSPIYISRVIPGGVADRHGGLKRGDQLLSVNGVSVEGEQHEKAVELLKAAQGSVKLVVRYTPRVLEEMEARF

[18] = molecular target: MAGI2_2, Q86UL8
[19] = molecular target: T5, MPP2, Q14168
T5 sequence (Q14168 180-250, limits assumed, looked up): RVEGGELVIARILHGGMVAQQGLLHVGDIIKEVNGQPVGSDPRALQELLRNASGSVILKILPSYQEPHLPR

[20] = molecular target: T6, NHERF3_1, Q5T2W1
T6 sequence (Q5T2W1 4-100, limits assumed, looked up): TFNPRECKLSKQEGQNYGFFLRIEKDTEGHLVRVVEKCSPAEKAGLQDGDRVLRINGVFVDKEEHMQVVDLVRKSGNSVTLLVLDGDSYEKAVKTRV

[21] = molecular target: T7, NHERF3_3, Q5T2W1
T7 sequence (Q5T2W1 238-333, limits assumed, looked up): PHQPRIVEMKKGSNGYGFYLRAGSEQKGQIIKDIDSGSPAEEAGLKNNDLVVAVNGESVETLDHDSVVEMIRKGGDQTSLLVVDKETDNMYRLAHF

[22] = molecular target: NHERF4_1, Q86UT5-2
[23] = molecular target: PDLIM1, O00151
[24] = molecular target: PDZRN4_1, Q6ZMN7
[25] = molecular target: T8, RADIL, Q96JH8
T8 sequence (Q96JH8 971-1071, limits assumed, looked up): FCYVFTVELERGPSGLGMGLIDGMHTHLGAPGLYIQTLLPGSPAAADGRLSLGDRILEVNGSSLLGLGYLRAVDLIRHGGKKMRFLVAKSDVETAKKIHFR

[26] = molecular target: T9, RHPN1, Q8TCX5
T9 sequence (Q8TCX5 508-602, limits assumed, looked up): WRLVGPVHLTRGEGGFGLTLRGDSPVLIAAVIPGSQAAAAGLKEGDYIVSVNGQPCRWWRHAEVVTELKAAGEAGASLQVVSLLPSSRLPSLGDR

[27] = molecular target: T10, TIAM2, Q8IVF5
T10 sequence (Q8IVF5 885-986, limits assumed, looked up): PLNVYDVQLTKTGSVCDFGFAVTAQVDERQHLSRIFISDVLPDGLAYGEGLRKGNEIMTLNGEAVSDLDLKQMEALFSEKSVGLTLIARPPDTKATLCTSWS

[28] = plain residues with an end cap or a label only (N-terminal biotin on a linker: ahx)
[29] = plain residues with an end cap or a label only (N-terminal biotin on a linker: ttds)

Chain of PDLIM1, O00151 (O00151 1-87): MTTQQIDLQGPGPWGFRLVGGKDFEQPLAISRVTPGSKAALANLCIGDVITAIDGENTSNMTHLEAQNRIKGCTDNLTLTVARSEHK
Chain of MAGI2_2, Q86UL8 (Q86UL8 410-522): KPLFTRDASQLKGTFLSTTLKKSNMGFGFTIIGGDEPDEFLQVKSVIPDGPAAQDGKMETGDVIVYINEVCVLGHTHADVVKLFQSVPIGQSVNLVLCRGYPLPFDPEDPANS
Chain of Inadl_8, Q8NI35 (Q8NI35 1425-1530): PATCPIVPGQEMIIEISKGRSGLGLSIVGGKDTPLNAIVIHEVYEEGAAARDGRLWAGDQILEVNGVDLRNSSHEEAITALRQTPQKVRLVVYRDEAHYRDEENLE
Chain of Inadl_10, Q8NI35 (Q8NI35 1673-1763): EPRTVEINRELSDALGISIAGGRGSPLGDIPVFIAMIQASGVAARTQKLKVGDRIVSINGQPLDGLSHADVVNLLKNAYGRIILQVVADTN
Chain of NHERF4_1, Q86UT5-2 (Q86UT5 other isoform, or with tags, fused parts or gaps): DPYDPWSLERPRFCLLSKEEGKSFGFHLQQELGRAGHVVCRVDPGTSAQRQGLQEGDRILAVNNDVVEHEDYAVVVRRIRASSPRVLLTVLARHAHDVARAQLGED
Chain of DLG5_1, Q8TDM6 (Q8TDM6 617-713): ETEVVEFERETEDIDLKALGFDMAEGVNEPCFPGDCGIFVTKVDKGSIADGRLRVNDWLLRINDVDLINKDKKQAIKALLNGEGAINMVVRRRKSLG
Chain of Inadl_2, Q8NI35 (Q8NI35 238-335): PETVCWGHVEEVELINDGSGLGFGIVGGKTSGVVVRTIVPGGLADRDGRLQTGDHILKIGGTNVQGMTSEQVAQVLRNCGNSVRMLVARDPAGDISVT
Chain of DLG2_2, Q15700 (Q15700 189-283): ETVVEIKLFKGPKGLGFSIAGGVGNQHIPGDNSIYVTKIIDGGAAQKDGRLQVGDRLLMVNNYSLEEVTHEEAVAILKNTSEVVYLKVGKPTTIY
Chain of ARHGEF12, Q9NZN5-2 (Q9NZN5 other isoform, or with tags, fused parts or gaps): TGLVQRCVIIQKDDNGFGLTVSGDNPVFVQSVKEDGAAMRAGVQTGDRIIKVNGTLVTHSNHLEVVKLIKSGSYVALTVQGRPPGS
Chain of GIPC2, Q8TF65 (Q8TF65 112-203): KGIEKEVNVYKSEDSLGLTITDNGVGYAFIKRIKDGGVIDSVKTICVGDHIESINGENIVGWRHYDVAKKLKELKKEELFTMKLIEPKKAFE
Chain of Inadl_6, Q8NI35 (Q8NI35 1058-1167): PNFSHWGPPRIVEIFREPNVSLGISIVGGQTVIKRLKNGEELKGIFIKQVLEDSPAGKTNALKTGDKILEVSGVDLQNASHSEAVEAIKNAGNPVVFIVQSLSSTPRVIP
Chain of PDZRN4_1, Q6ZMN7 (Q6ZMN7 213-318): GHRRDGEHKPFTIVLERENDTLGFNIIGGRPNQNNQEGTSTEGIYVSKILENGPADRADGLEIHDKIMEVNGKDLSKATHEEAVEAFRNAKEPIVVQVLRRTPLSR
Chain of GRASP, Q7Z6J2 (Q7Z6J2 96-193): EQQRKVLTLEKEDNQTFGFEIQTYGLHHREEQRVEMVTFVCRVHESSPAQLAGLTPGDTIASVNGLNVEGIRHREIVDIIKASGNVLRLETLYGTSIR
Chain of GRID2IP_1, A4D2P6 (A4D2P6 1-87): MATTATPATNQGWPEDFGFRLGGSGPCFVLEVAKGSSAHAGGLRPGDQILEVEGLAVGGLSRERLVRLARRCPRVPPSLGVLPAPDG
Chain of LDB3, O75112 (O75112 1-94): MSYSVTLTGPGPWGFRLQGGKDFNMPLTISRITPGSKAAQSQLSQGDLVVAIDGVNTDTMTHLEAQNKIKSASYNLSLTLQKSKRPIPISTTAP

B1: NHERF3, Q5T2W1 (peptide)
chain: SSSNSEDTEM
pKd [1, 28]: below the threshold | pKd [2, 28]: below the threshold | pKd [3, 28]: below the threshold | pKd [4, 28]: below the threshold | pKd [5, 28]: below the threshold | pKd [6, 28]: below the threshold | pKd [7, 28]: below the threshold | pKd [8, 28]: below the threshold | pKd [9, 28]: below the threshold | pKd [10, 28]: below the threshold | pKd [11, 28]: below the threshold | pKd [12, 28]: below the threshold | pKd [13, 28]: below the threshold | pKd [14, 28]: below the threshold | pKd [15, 28]: below the threshold | pKd [16, 28]: below the threshold | pKd [17, 28]: below the threshold | pKd [18, 28]: below the threshold | pKd [19, 28]: below the threshold | pKd [20, 28]: below the threshold | pKd [21, 28]: below the threshold | pKd [22, 28]: below the threshold | pKd [23, 28]: below the threshold | pKd [24, 28]: below the threshold | pKd [25, 28]: below the threshold | pKd [26, 28]: 3.98 | pKd [27, 28]: below the threshold

B2: ATP2B1, P20020 (peptide)
chain: SPLHSLETSL
pKd [1, 29]: below the threshold | pKd [2, 29]: 3.58 | pKd [3, 29]: 4.88 | pKd [4, 29]: below the threshold | pKd [5, 29]: 4.12 | pKd [6, 29]: 4.67 | pKd [7, 29]: 4.18 | pKd [8, 29]: below the threshold | pKd [9, 29]: 3.88 | pKd [10, 29]: 4.22 | pKd [11, 29]: below the threshold | pKd [12, 29]: below the threshold | pKd [13, 29]: below the threshold | pKd [14, 29]: 4.31 | pKd [15, 29]: below the threshold | pKd [16, 29]: below the threshold | pKd [17, 29]: 4.22 | pKd [18, 29]: 3.86 | pKd [19, 29]: below the threshold | pKd [20, 29]: 5.24 | pKd [21, 29]: below the threshold | pKd [22, 29]: 3.91 | pKd [23, 29]: 3.71 | pKd [24, 29]: 5.24 | pKd [25, 29]: below the threshold | pKd [26, 29]: 4.75 | pKd [27, 29]: below the threshold

B3: RGS12, O14924 (peptide)
chain: KTSAHHATFV
pKd [1, 28]: below the threshold | pKd [2, 28]: below the threshold | pKd [3, 28]: 3.82 | pKd [4, 28]: below the threshold | pKd [5, 28]: 3.93 | pKd [6, 28]: 4.15 | pKd [7, 28]: 4.01 | pKd [8, 28]: below the threshold | pKd [9, 28]: below the threshold | pKd [10, 28]: 4.12 | pKd [11, 28]: below the threshold | pKd [12, 28]: 3.91 | pKd [13, 28]: below the threshold | pKd [14, 28]: 3.94 | pKd [15, 28]: 4.22 | pKd [16, 28]: below the threshold | pKd [17, 28]: below the threshold | pKd [18, 28]: 4.29 | pKd [19, 28]: below the threshold | pKd [20, 28]: 4.41 | pKd [21, 28]: below the threshold | pKd [22, 28]: below the threshold | pKd [23, 28]: below the threshold | pKd [24, 28]: below the threshold | pKd [25, 28]: 5.28 | pKd [26, 28]: 4.03 | pKd [27, 28]: below the threshold

B4: DGKZ, Q13574 (peptide)
chain: IQREDQETAV
pKd [1, 29]: below the threshold | pKd [2, 29]: below the threshold | pKd [3, 29]: 4.22 | pKd [4, 29]: below the threshold | pKd [5, 29]: 4.73 | pKd [6, 29]: 5.16 | pKd [7, 29]: 4.69 | pKd [8, 29]: below the threshold | pKd [9, 29]: 3.67 | pKd [10, 29]: 3.67 | pKd [11, 29]: below the threshold | pKd [12, 29]: below the threshold | pKd [13, 29]: below the threshold | pKd [14, 29]: 4.02 | pKd [15, 29]: below the threshold | pKd [16, 29]: below the threshold | pKd [17, 29]: 4.09 | pKd [18, 29]: 3.65 | pKd [19, 29]: below the threshold | pKd [20, 29]: 5.14 | pKd [21, 29]: below the threshold | pKd [22, 29]: below the threshold | pKd [23, 29]: below the threshold | pKd [24, 29]: 4.81 | pKd [25, 29]: below the threshold | pKd [26, 29]: 4.35 | pKd [27, 29]: below the threshold

— publication PMC9482650, “Quantitative fragmentomics allow affinity mapping of interactomes” (Nature Communications, 2022)
